Data taken from PMC6293271, “Bactericidal/Permeability-Increasing Protein Is an Enhancer of Bacterial Lipoprotein Recognition” (Frontiers in Immunology, 2018).

Assays:
[1] = system: PBMCs; assay: Stimulation of human PBMCs, cytokine ELISA of supernatants; type: cell-based; details: for TNFα secretion: 18 h
Procedure: After informed consent, blood was drawn from healthy male volunteers using heparinized blood collection tubes (Li-Heparin-Gel-Monovette, Sarstedt, Nümbrecht, Germany) and diluted in RPMI 1640 (Biochrom, Berlin, Germany) at a ratio of 1:1.5. The blood was centrifuged in leucosep tubes containing Ficoll® Paque plus (Oxford Immunotec, Abingdon, Great Britian) at 1,000 × g for 10 min. The interphase containing the leukocytes was collected and subsequently washed twice with RPMI 1640. The pellet was resuspended in AIM V® Medium (Thermo Fisher Scientific, Waltham, MA, USA), counted and cultivated in 96-well plates for 4 h (1 × 10^5/100 μl). Then cells were stimulated with the indicated compounds in the presence or absence of BPI. The supernatants were collected after 18 h for determination of cytokine concentration by ELISA according to the manufacturer's instructions (OptEIA^TM Human TNFα ELISA Set and OptEIA^TM Human IL6 ELISA, BD Biosciences, Heidelberg, Germany; DuoSet® ELISA human CXCL8/IL-8, R&D, Minneapolis, MN, USA).

[2] = system: HEK293T cells expressing TLR2 and CD14; assay: Stimulation of HEK293T cells transfected with human TLR2 and CD14, IL-8 ELISA; type: cell-based; details: HEK293T expressing TLR2 and CD14, (R)-Pam3CSK4 ± BPI, 24 h
Procedure: HEK293T cells were transfected using the calcium phosphate mediated method according to a published protocol ([45]). Transfections were performed using plasmid vectors for human TLR2 and human CD14 (both a kind gift of Carsten Kirschning, University of Duisburg-Essen, Germany) at concentrations of 0.4 and 0.05 μg/ml, respectively. A GFP encoding plasmid (0.4 μg/ml) was used as control. For stimulation, transfected HEK293T cells were cultured at 2 × 10^5 cells/ml in 96-well plates and stimulated with (R)-Pam3CSK4 ± BPI. After 24 h, supernatants were collected and analyzed for secretion of IL-8 by ELISA (DuoSet® ELISA human CXCL8/IL-8, R&D, Minneapolis, MN, USA).

B1: rBPI: recombinant human BPI (aa 32-487) with C-terminal FLAG Tag expressed in HEK293T cells (protein)
chain: VNPGVVVRISQKGLDYASQQGTAALQKELKRIKIPDYSDSFKIKHLGKGHYSFYSMDIREFQLPSSQISMVPNVGLKFSISNANIKISGKWKAQKRFLKMSGNFDLSIEGMSISADLKLGSNPTSGKPTITCSSCSSHINSVHVHISKSKVGWLIQLFHKKIESALRNKMNSQVCEKVTNSVSSELQPYFQTLPVMTKIDSVAGINYGLVAPPATTAETLDVQMKGEFYSENHHNPPPFAPPVMEFPAAHDRMVYLGLSDYFFNTAGLVYQEAGVLKMTLRDDMIPKESKFRLTTKFFGTFLPEVAKKFPNMKIQIHVSASTPPHLSVQPTGLTFYPAVDVQAFAVLPNSSLASLFLIGMHTTGSMEVSAESNRLVGELKLDRLLLELKHSNIGPFPVELLQDIMNYIVPILVLPRVNEKLQKGFPLPTPARVQLYNVVLQPHQNFLLFGADVVYK
modifications: labelled with NT647 (NHS labelling kit) in the MST experiments only; left off: HA signal peptide, N-terminal, state not stated | FLAG, C-terminal, state not stated
notes: recombinant human BPI (aa 32-487) with C-terminal FLAG Tag expressed in HEK293T cells
In the case of B1, the TNFα secretion ([1]; PBMCs stimulated with (R)-FSL-1, increasing rBPI concentration) is reported as “gradually enhanced”, the TNFα secretion ([1]; PBMCs stimulated with (R)-Pam3CSK4, increasing rBPI concentration) is reported as “gradually enhanced” and the “TNFα, IL-6, and IL-8 secretion” value ([1]; PBMCs stimulated with lysate of S. pneumoniae D39Δcps, seven donors, BPI 500 nM) is reported as “remarkable increase”. For the same molecule, the “TNFα, IL-6, and IL-8 secretion” value ([1]; PBMCs stimulated with lysates of S. aureus 113, BPI 500 nM) was “also increased”, the “secretion of TNFα” value ([1]; PBMCs, BPI incubated with LTA SPΔlgt compared to LTA SPΔlgt alone) was “increased secretion of TNFα” and the “enhancement of immune stimulation of bLPs (IL-8)” value [2] was “not sufficient to enhance”.
